Test results published in the supplement of paper PMC10065799, “High-throughput profiling of sequence recognition by tyrosine kinases and SH2 domains using bacterial peptide display” (eLife, 2023).

How the values were obtained:
[1] = biological target: c-Src SH2; assay: SH2 binding enrichment of the phosphorylated peptide, bacterial display (enrichment ratio); higher = better substrate or ligand; peptides without Tyr show the background
[2] = biological target: SHP2-C SH2; assay: as above
[3] = biological target: Grb2 SH2 (UniProt P62993); assay: as above
[4] = test system: Fer (mouse); assay: phosphorylation enrichment, bacterial display (enrichment ratio); higher = better substrate or ligand; peptides without Tyr show the background
[5] = biological target: EPHB2 (UniProt P29323); assay: as above
[6] = biological target: Jak2 (UniProt O60674); assay: as above
Jak2, sequence (O60674 whole entry, looked up): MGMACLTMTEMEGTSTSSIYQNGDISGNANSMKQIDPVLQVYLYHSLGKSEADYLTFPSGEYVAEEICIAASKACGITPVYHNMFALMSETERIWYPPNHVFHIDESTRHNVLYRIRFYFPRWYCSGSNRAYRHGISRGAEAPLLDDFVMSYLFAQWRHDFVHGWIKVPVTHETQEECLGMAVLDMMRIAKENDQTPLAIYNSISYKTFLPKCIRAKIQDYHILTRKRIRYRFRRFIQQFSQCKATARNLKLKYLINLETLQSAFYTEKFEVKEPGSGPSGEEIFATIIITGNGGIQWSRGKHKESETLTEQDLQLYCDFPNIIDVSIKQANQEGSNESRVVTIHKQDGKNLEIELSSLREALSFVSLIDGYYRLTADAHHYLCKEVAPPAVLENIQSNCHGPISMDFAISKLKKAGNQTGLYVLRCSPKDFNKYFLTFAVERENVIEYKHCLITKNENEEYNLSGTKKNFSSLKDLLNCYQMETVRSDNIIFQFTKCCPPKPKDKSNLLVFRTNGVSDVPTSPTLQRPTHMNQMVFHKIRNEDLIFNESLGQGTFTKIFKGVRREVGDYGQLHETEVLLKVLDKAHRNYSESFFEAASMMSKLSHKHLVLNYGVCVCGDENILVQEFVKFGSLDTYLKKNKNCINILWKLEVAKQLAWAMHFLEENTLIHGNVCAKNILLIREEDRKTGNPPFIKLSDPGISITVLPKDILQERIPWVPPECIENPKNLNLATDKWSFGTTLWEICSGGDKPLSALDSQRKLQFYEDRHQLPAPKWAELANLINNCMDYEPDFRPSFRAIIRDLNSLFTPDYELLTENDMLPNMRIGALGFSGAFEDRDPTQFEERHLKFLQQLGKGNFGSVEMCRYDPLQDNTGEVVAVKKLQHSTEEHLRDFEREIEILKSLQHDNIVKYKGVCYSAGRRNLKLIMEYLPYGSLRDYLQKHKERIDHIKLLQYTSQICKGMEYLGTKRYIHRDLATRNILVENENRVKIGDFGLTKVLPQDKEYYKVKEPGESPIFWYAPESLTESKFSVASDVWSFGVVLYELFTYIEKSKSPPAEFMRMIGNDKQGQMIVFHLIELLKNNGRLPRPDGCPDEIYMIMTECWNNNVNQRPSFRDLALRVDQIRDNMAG

[7] = test system: AncSZ; assay: as above
[8] = biological target: EPHB1 (UniProt P54762); assay: as above
EPHB1, sequence (P54762 whole entry, looked up): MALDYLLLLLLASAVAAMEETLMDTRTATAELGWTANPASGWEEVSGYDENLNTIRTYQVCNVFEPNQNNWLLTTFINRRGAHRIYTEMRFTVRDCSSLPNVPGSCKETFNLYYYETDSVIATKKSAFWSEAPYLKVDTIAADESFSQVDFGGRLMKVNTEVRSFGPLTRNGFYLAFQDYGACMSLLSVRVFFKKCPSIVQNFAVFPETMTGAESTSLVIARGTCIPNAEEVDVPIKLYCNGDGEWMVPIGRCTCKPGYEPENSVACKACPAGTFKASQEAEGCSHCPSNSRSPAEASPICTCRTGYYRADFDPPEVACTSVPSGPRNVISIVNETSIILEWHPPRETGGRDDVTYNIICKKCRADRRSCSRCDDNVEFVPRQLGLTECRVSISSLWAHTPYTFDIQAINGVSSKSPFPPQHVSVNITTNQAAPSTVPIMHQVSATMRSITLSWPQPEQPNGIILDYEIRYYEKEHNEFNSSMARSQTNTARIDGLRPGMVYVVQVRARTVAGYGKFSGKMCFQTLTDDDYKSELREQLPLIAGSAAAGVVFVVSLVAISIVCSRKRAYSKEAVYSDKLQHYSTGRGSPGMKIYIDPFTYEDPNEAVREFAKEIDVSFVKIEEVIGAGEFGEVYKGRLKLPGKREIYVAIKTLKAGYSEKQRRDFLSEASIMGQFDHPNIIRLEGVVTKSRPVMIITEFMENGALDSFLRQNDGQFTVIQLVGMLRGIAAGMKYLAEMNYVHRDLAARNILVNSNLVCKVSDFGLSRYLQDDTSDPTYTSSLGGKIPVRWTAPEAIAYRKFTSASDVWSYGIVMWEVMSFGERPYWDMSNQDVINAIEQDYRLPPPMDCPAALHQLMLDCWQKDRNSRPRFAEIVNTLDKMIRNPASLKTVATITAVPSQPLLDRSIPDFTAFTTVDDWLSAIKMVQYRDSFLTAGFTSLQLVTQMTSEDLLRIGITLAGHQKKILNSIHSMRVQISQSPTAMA

[9] = biological target: Fes (UniProt P07332); assay: as above
Fes, sequence (P07332 whole entry, looked up): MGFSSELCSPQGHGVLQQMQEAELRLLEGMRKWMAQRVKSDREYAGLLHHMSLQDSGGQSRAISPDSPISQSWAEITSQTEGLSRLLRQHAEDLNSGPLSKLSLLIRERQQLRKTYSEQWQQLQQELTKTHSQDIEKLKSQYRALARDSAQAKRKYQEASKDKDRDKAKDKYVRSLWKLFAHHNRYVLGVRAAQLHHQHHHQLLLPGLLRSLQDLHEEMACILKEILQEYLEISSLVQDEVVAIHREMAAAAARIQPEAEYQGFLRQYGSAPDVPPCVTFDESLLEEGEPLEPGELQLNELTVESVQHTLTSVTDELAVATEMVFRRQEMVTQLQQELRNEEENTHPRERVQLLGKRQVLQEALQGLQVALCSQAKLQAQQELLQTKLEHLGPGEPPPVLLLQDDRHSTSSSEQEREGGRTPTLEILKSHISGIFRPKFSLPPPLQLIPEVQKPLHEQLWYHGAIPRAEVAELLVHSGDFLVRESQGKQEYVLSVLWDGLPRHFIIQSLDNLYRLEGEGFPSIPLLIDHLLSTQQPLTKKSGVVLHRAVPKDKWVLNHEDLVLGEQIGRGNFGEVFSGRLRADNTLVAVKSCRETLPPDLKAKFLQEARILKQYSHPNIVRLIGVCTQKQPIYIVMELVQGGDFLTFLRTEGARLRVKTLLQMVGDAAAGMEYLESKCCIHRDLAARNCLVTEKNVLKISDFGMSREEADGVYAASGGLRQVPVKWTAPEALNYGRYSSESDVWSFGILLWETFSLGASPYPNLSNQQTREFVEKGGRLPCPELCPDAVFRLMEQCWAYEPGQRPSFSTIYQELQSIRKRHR

[10] = test system: c-Abl (mouse); assay: as above
[11] = biological target: MERTK (UniProt Q12866); assay: as above
[12] = biological target: Hck (UniProt P08631); assay: as above
Hck, sequence (P08631 whole entry, looked up): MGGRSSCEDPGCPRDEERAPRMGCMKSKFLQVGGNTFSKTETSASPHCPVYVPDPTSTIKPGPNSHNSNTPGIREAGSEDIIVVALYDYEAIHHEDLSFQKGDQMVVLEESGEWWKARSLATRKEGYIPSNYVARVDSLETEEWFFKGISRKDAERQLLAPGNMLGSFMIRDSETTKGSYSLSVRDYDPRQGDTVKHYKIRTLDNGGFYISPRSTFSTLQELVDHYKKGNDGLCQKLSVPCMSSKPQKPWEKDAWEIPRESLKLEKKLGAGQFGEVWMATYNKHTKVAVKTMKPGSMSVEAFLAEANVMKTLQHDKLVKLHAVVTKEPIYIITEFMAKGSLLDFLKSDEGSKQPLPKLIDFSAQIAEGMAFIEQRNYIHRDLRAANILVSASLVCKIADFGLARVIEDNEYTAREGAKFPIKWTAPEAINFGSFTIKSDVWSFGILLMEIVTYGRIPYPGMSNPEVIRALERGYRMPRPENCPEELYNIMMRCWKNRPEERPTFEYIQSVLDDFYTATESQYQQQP

[13] = biological target: FGFR1 (UniProt P11362); assay: as above
FGFR1, sequence (P11362 whole entry, looked up): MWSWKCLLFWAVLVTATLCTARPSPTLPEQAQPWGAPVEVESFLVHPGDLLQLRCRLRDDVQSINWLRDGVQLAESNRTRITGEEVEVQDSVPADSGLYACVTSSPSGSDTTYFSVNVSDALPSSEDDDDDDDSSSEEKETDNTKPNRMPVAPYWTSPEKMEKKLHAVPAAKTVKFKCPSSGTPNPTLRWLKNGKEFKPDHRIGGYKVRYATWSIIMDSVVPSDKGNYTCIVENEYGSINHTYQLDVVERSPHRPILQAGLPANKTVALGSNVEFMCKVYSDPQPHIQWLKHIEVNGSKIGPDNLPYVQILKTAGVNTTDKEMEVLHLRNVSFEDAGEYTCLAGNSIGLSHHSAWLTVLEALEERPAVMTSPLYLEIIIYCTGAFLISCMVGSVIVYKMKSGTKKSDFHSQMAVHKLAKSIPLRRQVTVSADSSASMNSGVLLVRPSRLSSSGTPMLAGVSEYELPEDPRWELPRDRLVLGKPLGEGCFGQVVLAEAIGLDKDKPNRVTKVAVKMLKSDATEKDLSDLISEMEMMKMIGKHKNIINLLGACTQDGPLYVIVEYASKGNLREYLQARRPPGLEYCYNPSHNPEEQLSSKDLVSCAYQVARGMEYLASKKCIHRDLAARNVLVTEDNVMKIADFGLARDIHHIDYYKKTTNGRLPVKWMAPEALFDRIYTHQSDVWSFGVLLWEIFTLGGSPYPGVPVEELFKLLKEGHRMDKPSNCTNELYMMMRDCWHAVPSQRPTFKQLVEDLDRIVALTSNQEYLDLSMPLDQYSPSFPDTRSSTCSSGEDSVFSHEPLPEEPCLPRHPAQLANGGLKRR

[14] = biological target: Fyn (UniProt P06241); assay: as above
[15] = biological target: FGFR3 (UniProt P22607); assay: as above
FGFR3, sequence (P22607 whole entry, looked up): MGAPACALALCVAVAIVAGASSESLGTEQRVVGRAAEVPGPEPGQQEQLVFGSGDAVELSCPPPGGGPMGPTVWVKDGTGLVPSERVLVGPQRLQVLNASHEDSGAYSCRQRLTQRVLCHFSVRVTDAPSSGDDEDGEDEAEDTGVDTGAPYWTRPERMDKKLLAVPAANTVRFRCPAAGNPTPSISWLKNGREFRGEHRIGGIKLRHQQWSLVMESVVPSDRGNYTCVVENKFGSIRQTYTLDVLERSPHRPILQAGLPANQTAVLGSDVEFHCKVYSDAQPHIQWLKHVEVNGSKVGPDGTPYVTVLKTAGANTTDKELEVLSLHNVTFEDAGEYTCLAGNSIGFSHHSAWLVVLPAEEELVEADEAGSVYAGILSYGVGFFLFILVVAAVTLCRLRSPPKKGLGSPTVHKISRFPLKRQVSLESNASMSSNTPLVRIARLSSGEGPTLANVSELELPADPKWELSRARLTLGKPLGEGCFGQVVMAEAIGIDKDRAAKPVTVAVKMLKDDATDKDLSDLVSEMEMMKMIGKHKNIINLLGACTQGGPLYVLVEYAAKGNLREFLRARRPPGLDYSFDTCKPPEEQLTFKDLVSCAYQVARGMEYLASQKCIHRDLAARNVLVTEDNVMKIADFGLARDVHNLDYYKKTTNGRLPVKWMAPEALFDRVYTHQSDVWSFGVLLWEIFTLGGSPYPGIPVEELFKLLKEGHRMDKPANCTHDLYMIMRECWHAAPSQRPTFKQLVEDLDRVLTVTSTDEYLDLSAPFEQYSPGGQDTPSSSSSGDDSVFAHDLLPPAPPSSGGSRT

[16] = test system: c-Src; assay: as above
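Throughout, for SH2 binding enrichment of the phosphorylated peptide, bacterial display: peptide library displayed on the E. coli surface as eCPX fusions, selected cells deep-sequenced, score is each peptide's frequency after selection divided by its frequency in the input.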
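Throughout, for phosphorylation enrichment, bacterial display: 11-residue human phosphosite peptides and single-mutation variants displayed on the E. coli surface, counted by deep sequencing, each peptide's frequency after selection divided by its frequency in the unselected input library; frequency after pTyr selection over input frequency; kinase dosed for 20-30% of maximal phosphorylation in three min.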

Row | Sequence | SH2 binding enrichment [1] | SH2 binding enrichment [2] | SH2 binding enrichment [3] | phosphorylation enrichment [4] | phosphorylation enrichment [5] | phosphorylation enrichment [6] | phosphorylation enrichment [7] | phosphorylation enrichment [8] | phosphorylation enrichment [9] | phosphorylation enrichment [10] | phosphorylation enrichment [11] | phosphorylation enrichment [12] | phosphorylation enrichment [13] | phosphorylation enrichment [14] | phosphorylation enrichment [15] | phosphorylation enrichment [16]
1 | IVLEKYKLLPE [DHFR_Y157_D153V] | 0.575 | 0.907 | 0.922 | 0.45 | 0.638 | 0.809 | 0.843 | 0.53 | 1.07 | 0.676 | 0.386 | 0.458 | 0.596 | 0.453 | 0.752 | 0.346
2 | KANEFYPVVLI [ADAMTS18_Y765_YF] | 0.388 | 0.421 | 0.663 | 0.82 | 0.48 | 1.06 | 1.03 | 0.448 | 1.15 | 0.68 | 0.451 | 0.412 | 2.76 | 0.482 | 1.97 | 0.506
3 | KCLAVYQAGAR [APOE_Y180_R176C] | 0.677 | 0.628 | 0.841 | 0.487 | 0.646 | 0.744 | 0.737 | 0.597 | 0.742 | 0.734 | 0.478 | 0.812 | 0.47 | 0.646 | 0.557 | 2.45
4 | KDGNGYISVAE [CALM3_Y100_A103V] | 2.5 | 0.746 | 0.685 | 0.442 | 0.485 | 0.671 | 0.771 | 0.362 | 0.859 | 0.679 | 0.418 | 0.462 | 0.404 | 0.407 | 0.473 | 0.598
5 | KGEDFYFVTCH [FHL1_Y149_C150Y_YF] | 0.392 | 0.345 | 0.743 | 0.588 | 0.788 | 1.49 | 1.26 | 0.709 | 1.57 | 0.9 | 0.491 | 0.503 | 0.62 | 0.451 | 0.946 | 0.468
6 | KKARAYGPGIE [FLNA_Y287] | 0.408 | 0.855 | 0.693 | 0.38 | 0.335 | 0.418 | 0.576 | 0.328 | 0.446 | 0.468 | 0.399 | 0.405 | 0.323 | 0.357 | 0.343 | 0.392
7 | KKCTRYIDCDL [ASPA_Y64] | 0.875 | 0.83 | 0.932 | 0.423 | 0.434 | 0.782 | 0.798 | 0.428 | 0.852 | 0.757 | 0.421 | 0.41 | 0.623 | 0.389 | 0.575 | 0.429
8 | KLADIYQAELR [GFAP_Y116_V115I] | 0.541 | 0.561 | 1.01 | 0.502 | 0.595 | 0.813 | 0.789 | 0.59 | 0.839 | 0.674 | 0.709 | 0.799 | 0.419 | 0.795 | 0.582 | 1.62
9 | KLADMYGGGED [CDH1_Y876] | 0.558 | 0.748 | 0.812 | 0.461 | 0.43 | 0.732 | 0.766 | 0.424 | 0.79 | 0.455 | 0.436 | 0.463 | 0.561 | 0.484 | 0.509 | 0.42
10 | KLASTYREAAT [DEAF1_Y483_H479L] | 0.418 | 0.508 | 0.787 | 0.267 | 0.337 | 0.309 | 0.353 | 0.343 | 0.494 | 0.432 | 0.344 | 0.318 | 0.352 | 0.371 | 0.351 | 0.273
11 | KLLPEYPGILS [DHFR2_Y163_V166I] | 0.528 | 0.71 | 0.884 | 0.466 | 0.458 | 0.739 | 0.772 | 0.488 | 0.832 | 0.627 | 0.376 | 0.419 | 0.467 | 0.436 | 0.524 | 0.431
12 | KLSCSYSHLSA [C4BPA_Y470_W473L] | 0.631 | 0.734 | 0.897 | 0.55 | 0.588 | 1.06 | 1.15 | 0.535 | 1.21 | 0.782 | 0.58 | 0.513 | 0.574 | 0.572 | 0.742 | 0.584
13 | KLSFSYGQALQ [ALDOB_Y302_R304Q] | 0.475 | 0.703 | 0.861 | 0.529 | 0.564 | 1.03 | 1 | 0.649 | 1.1 | 0.686 | 0.437 | 0.383 | 0.503 | 0.422 | 0.72 | 0.41
14 | KNEVFYQCPDQ [FBXO3_Y223] | 0.526 | 0.523 | 0.783 | 6.47 | 2.03 | 0.941 | 3.2 | 1.04 | 1.55 | 7.94 | 3.49 | 1.69 | 1.26 | 1.03 | 1.49 | 0.985

Now from value to sequence, other results behind:

Row | SH2 binding enrichment [1] | SH2 binding enrichment [2] | SH2 binding enrichment [3] | Sequence | phosphorylation enrichment [4] | phosphorylation enrichment [5] | phosphorylation enrichment [6] | phosphorylation enrichment [7] | phosphorylation enrichment [8] | phosphorylation enrichment [9] | phosphorylation enrichment [10] | phosphorylation enrichment [11] | phosphorylation enrichment [12] | phosphorylation enrichment [13] | phosphorylation enrichment [14] | phosphorylation enrichment [15] | phosphorylation enrichment [16]
15 | 3.15 | 0.815 | 0.823 | IVRSLYEDPED [VHL_Y185_L188P] | 0.738 | 0.698 | 0.878 | 1.12 | 0.748 | 1.02 | 0.619 | 0.424 | 0.544 | 0.502 | 0.455 | 0.707 | 0.586
16 | 5.64 | 0.766 | 0.962 | IVRSPYEDLED [VHL_Y185_L184P] | 0.562 | 0.682 | 1.35 | 1.31 | 0.58 | 1.16 | 0.748 | 0.533 | 0.528 | 0.571 | 0.506 | 0.704 | 0.531
17 | 0.553 | 0.649 | 0.616 | IYGASYVPFAA [RBM47_Y541] | 7.91 | 0.861 | 2.11 | 0.701 | 0.67 | 0.687 | 9.26 | 6.3 | 7.75 | 0.78 | 10 | 0.708 | 6.94
18 | 0.454 | 0.899 | 0.838 | KASVDYIRKLQ [MITF_Y360] | 0.351 | 0.409 | 0.589 | 0.765 | 0.393 | 0.651 | 0.503 | 0.32 | 0.351 | 0.364 | 0.336 | 0.482 | 0.345
19 | 0.532 | 0.649 | 0.794 | KDDEKYLDVSR [MTM1_Y260_I264S] | 0.442 | 0.556 | 0.973 | 0.951 | 0.521 | 1.09 | 0.824 | 0.423 | 0.457 | 0.473 | 0.456 | 0.655 | 0.433
20 | 0.572 | 1.07 | 1.05 | KDQGIYEDFVE [MYL6_Y86_T85I_YF] | 1.82 | 0.949 | 1.3 | 1.45 | 0.831 | 1.49 | 0.932 | 0.614 | 1.07 | 0.688 | 2.6 | 0.901 | 2.84
21 | 0.408 | 0.616 | 0.858 | KEAQVYQAFKL [SUCLG2_Y343] | 9.27 | 0.566 | 0.801 | 1.1 | 1.07 | 1.05 | 15.3 | 2.84 | 9.46 | 0.516 | 11.3 | 0.603 | 7.32
22 | 7.21 | 0.993 | 0.837 | KGYCGYSYDDI [TMEM230_Y110_R108C] | 0.89 | 0.536 | 0.891 | 1.35 | 0.557 | 0.972 | 0.621 | 0.607 | 0.563 | 0.927 | 0.468 | 0.823 | 0.862
23 | 1.23 | 0.822 | 1.02 | KILGTYYETGS [PAX2_Y72_R71T] | 0.466 | 0.641 | 0.653 | 0.875 | 0.66 | 0.936 | 0.592 | 1.01 | 0.818 | 1.85 | 0.769 | 1.61 | 1.29
24 | 0.823 | 0.727 | 0.97 | KIPGRYYETGS [PAX2_Y72_L69P] | 0.588 | 0.424 | 0.637 | 0.56 | 0.445 | 0.713 | 0.689 | 0.573 | 0.388 | 0.503 | 0.496 | 0.539 | 0.476
25 | 0.522 | 0.703 | 0.912 | KLIETYSSKNY [PLP1_Y50_F51S] | 0.44 | 0.759 | 0.653 | 0.649 | 0.684 | 0.838 | 0.591 | 0.539 | 0.536 | 0.584 | 0.429 | 0.619 | 0.543
26 | 0.668 | 0.7 | 0.854 | KMKGDYFCFLA [YWHAG_Y130_R132C_YF] | 0.548 | 1.56 | 6.97 | 2.31 | 2.48 | 1.18 | 2.24 | 2.32 | 1 | 11.9 | 2.13 | 9.56 | 2.94
27 | 0.891 | 0.87 | 0.888 | KMKGDYYRSLA [YWHAG_Y130_Y133S] | 0.325 | 0.401 | 0.616 | 0.54 | 0.369 | 0.562 | 0.541 | 0.434 | 0.444 | 0.718 | 0.388 | 0.513 | 0.389
28 | 1.24 | 1.3 | 1.63 | KMKGEYFRFLA [YWHAG_Y130_D129E_YF] | 0.7 | 0.567 | 2.04 | 0.791 | 0.678 | 0.93 | 1.4 | 0.598 | 0.783 | 3.77 | 1.75 | 2.58 | 2.76
29 | 1.65 | 0.973 | 1.12 | KMMGRYEMFAR [UPB1_Y362_T359M_YF] | 0.298 | 0.393 | 0.453 | 0.538 | 0.327 | 0.599 | 0.464 | 0.393 | 0.402 | 0.363 | 0.368 | 0.445 | 0.34
